Laboratory results reported in patent publication US10766952B2, “Methods for reducing migraine frequency in a subject in need thereof” (Beth Israel Deaconess Medical Center, Inc., priority 2017, dated 2020).

Experiments:
Type in all cases: in vivo, rat
[1] = tested on: naïve high-threshold (HT) trigeminovascular neurons; test: Single-unit recording of naïve central trigeminovascular neurons, HT neurons; details: 30 mg/kg IV
Description: (§1) Experiments were approved by the Beth Israel Deaconess Medical Center and Harvard Medical School standing committees on animal care, and in accordance with the U.S. National Institutes of Health Guide for the Care and Use of Laboratory Animals. Male and female Sprague-Dawley rats (250-350 g) were anesthetized with urethane (0.9-1.2 g/kg i.p.). They were fitted with an intra-tracheal tube to allow artificial ventilation (0.1 L/min of (O2), and an intra-femoral-vein cannula for later infusion of drugs. Rats were placed in a stereotaxic apparatus, and core temperature was kept at 37° C. using a heating blanket. End-tidal […] was continuously monitored and kept within physiological range (3.5-4.5 pCO2). Once stabilized, rats were paralyzed with rocuronium bromide (10 mg/ml, 1 ml/hr continuous intravenous infusion) and ventilated. For stimulation of the cranial dura later in the experiment, a 5×5-mm opening was carefully carved in the parietal and occipital bones in front and behind the lambda suture, directly above the left transverse sinus. The exposed dura was kept moist using a modified synthetic interstitial fluid (135 mM NaCl, 5 mM KCl, 1 mM MgCl2, 5 mM CaCl2, 10 mM glucose and 10 mM Hepes, pH 7.2). For single-unit recording in the spinal trigeminal nucleus, a segment of the spinal cord between the obex and C2 was uncovered from overlying tissues, stripped of the dura mater, and kept moist with mineral oil.
To record neuronal activity, a tungsten microelectrode (impedance 3-4 MΩ) was lowered repeatedly into the spinal trigeminal nucleus (STN) in search of central trigeminovascular neurons receiving convergent input from the dura and facial skin. Trigeminovascular neurons were first identified based on their responses to electrical stimulation of the dura. […] Dural receptive fields were mapped by indenting the dura (with the 4.19 g VFH monofilament) at points separated by 1 mm mediolaterally and rostrocaudally. Points at which dural indentation produced a response in ≥50% of the trials were considered inside the neurons receptive field. Cutaneous receptive fields were mapped by applying innocuous and noxious mechanical stimulation to all facial skin areas and the cornea. An area was considered outside the receptive field if no stimulus produced a response in ≥50% of the trials. Responses to mechanical stimulation of the skin were determined by applying brief (10 s) innocuous and noxious stimuli to the most sensitive portion of the cutaneous receptive field. Innocuous stimuli consisted of slowly passing a soft bristled brush across the cutaneous receptive field (one 5-s brush stroke from caudal to rostral and one 5-s brush stroke from rostral to caudal) and pressure applied with a loose arterial clip. Noxious stimuli consisted of pinch with a strong arterial clip (Palecek et al., 1992, J. Neurophysiol. 67:1562-1573; Dado et al., 1994, J. Neurophysiol. 71:981-1002; Burstein et al., 1998, J. Neurophysiol. 79:964-982). More intense or prolonged stimuli were not used to avoid inducing prolonged changes in spontaneous neuronal discharge or response properties. […] Real-time waveform discriminator was used to create and store a template for the action potential evoked in the neuron under study by electrical pulses on the dura; spikes of activity matching the template waveform were acquired and analyzed online and offline using Spike 2 software (CED, Cambridge, UK). […]

[2] = tested on: wide-dynamic range (WDR) trigeminovascular neurons; test: Activation of central trigeminovascular neurons by cortical spreading depression (CSD), WDR neurons
Description: Cortical spreading depression (CSD) was induced mechanically by inserting a glass micropipette (tip diameter 25 μm) about 1 mm into the visual cortex for 10 sec. At a propagation rate of 3-5 mm/min, a single wave of CSD was expected to enter the neuronal receptive field within 1-2 min of cortical stimulation. For verification of CSD, cortical activity was recorded (electrocorticogram) with a glass micropipette (0.9% saline, ˜1 megohm, 7 um tip) placed just below the surface of the cerebral cortex (approximately 100 μm). The electrocorticogram electrode was positioned about 6 mm anterior to the visual cortex. […]
The experimental protocol included two parts. […] In the first part, the baseline neuronal profile was established by (a) mapping the dural, cutaneous and corneal receptive field; (b) measuring responses (mean spikes/sec) to mechanical stimulation of the dura (with a fixed force), skin (brush, pressure, pinch) and cornea (brush), and (c) measuring spontaneous firing rate (recorded over 30 min prior to treatment). […] In the second part, CSD was induced 4 hours after administration of CGRP-mAb or isotype-conAb and 2 hours later (i.e., 6 hours after treatment) receptive field size, spontaneous activity rate, and response magnitude to stimulation of the dura, skin and cornea were measured again. […]

[3] = tested on: naïve wide-dynamic range (WDR) trigeminovascular neurons; test: Single-unit recording of naïve central trigeminovascular neurons, WDR neurons; details: 30 mg/kg IV
Description: as §1, with “For single-unit recording in the spinal trigeminal nucleus, a segment of the spinal cord between the obex and C2 was uncovered from overlying tissues, stripped of the dura mater, and kept moist with mineral oil.” left out
To record neuronal activity, a tungsten microelectrode (impedance 3-4 MΩ) was lowered repeatedly into the spinal trigeminal nucleus (STN) in search of central trigeminovascular neurons receiving convergent input from the dura and facial skin. […] Responses to mechanical stimulation of the skin were determined by applying brief (10 s) innocuous and noxious stimuli to the most sensitive portion of the cutaneous receptive field. […] Real-time waveform discriminator was used to create and store a template for the action potential evoked in the neuron under study by electrical pulses on the dura; spikes of activity matching the template waveform were acquired and analyzed online and offline using Spike 2 software (CED, Cambridge, UK). […]

B1: fremanezumab (antibody)
heavy: EVQLVESGGGLVQPGGSLRLSCAASGFTFSNYWISWVRQAPGKGLEWVAEIRSESDASATHYAEAVKGRFTISRDNAKNSLYLQMNSLRAEDTAVYYCLAYFDYGLAIQNYWGQGTLVTVSSASTKGPSVFPLAPCSRSTSESTAALGCLVKDYFPEPVTVSWNSGALTSGVHTFPAVLQSSGLYSLSSVVTVPSSNFGTQTYTCNVDHKPSNTKVDKTVERKCCVECPPCPAPPVAGPSVFLFPPKPKDTLMISRTPEVTCVVVDVSHEDPEVQFNWYVDGVEVHNAKTKPREEQFNSTFRVVSVLTVVHQDWLNGKEYKCKVSNKGLPSSIEKTISKTKGQPREPQVYTLPPSREEMTKNQVSLTCLVKGFYPSDIAVEWESNGQPENNYKTTPPMLDSDGSFFLYSKLTVDKSRWQQGNVFSCSVMHEALHNHYTQKSLSLSPGK
light: EIVLTQSPATLSLSPGERATLSCKASKRVTTYVSWYQQKPGQAPRLLIYGASNRYLGIPARFSGSGSGTDFTLTISSLEPEDFAVYYCSQSYNYPYTFGQGTKLEIKRTVAAPSVFIFPPSDEQLKSGTASVVCLLNNFYPREAKVQWKVDNALQSGNSQESVTEQDSKDSTYSLSSTLTLSKADYEKHKVYACEVTHQGLSSPVTKSFNRGEC
notes: humanized anti-CGRP antagonist antibody, vectors ATCC PTA-6867 and PTA-6866
- spontaneous activity of HT neurons ([1]; female rats): did not reduce the spontaneous activity
- decrease of firing of HT neurons in response to mechanical stimulation of the dura ([1]; female rats, p=0.017): 61%
- responses of HT neurons to innocuous (brush, pressure) or noxious (pinch) mechanical stimulation of the skin or the cornea ([1]; male or female rats): did not alter the responses
- decrease of firing of HT neurons in response to mechanical stimulation of the dura ([1]; male rats, p=0.047): 75%
- decrease of spontaneous neuronal firing of HT neurons ([1]; male rats, within 3-4 hrs, p=0.040): 90%
- difference in WDR neurons activated by CSD versus isotype-conAb ([2]; 5/13 versus 4/10): 2%
- WDR neurons activated by CSD (case-by-case analysis) ([2]; male and female rats, activated/tested): 5/13
- spontaneous activity of WDR neurons ([3]; female rats): did not reduce the spontaneous activity
- sensitivity of WDR neurons to mechanical stimulation of the dura ([3]; male and female rats): not the WDR neurons
- responses of WDR neurons to innocuous (brush, pressure) or noxious (pinch) mechanical stimulation of the skin or the cornea ([3]; male or female rats): did not alter the responses
